According to patent publication US20120277143A1 (Janssen / Centocor, published 2012):
Changes are numbered by the printed parent chain.

T1: human IL4 (human, UniProt P05112 25-153, biotinylated in the SPR and competition assays (sites not given))
T1 construct: Peprotech #200-04, mature protein produced in E. coli; also called hIL4; Interleukin 4
T1 sequence: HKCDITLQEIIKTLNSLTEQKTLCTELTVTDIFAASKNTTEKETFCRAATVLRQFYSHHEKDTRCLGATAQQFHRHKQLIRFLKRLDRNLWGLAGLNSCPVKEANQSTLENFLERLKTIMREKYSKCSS

B1: 7C6 (designed binder)
chain: DLGKKLLEAARAGQDDEVRILMANGADVNAMDKYGSTPLHLAARSGHLEIVEVLLKHGADVNATDFIGDTPLHLAAYHGHLEIVEVLLKHGADVNAEDITGETPLHLAAESGHLEIVEVLLKHGADVNAQDKFGKTAFDISIDNGNEDLAEILQKLN
notes: N-Cap-(AR)3-C-Cap
B2: 9E11 (designed binder)
chain: B1 chain with M31S, K33I, S45H, H57N, T64N, F66M, E97S, E110H, S111N, H123Y
notes: N-Cap-(AR)3-C-Cap
B3: 6G11 (designed binder)
chain: DLGKKLLEAARAGQDDEVRILMANGADVNAEDILGITPLHLAAHHGHLEIVEVLLKHGADVNANDFAGYTPLHLAAVYGHLEIVEVLLKYGADVNATDAWGETPLHLAAYTGHLEIVEVLLKHDADVNAQDKFGKTAFDISIDNGNEDLAEILQKLN
notes: N-Cap-(AR)3-C-Cap
B4: 7D7 (designed binder)
chain: DLGKKLLEAARAGQDDEVRILMANGADVNATDTYGSTPLHLAARHCHQEIVEVLLKHGADVNANDFIGDTPLHLAAWHGHLEIVEVLLKNGADVNAMDVTGETPLHLAAYHGHLDIVEVLLKNGADVNAQDKFGKTAFDISIDNGNEDLAEILQKLN
notes: N-Cap-(AR)3-C-Cap
B5: 9F8 (designed binder)
chain: DLGKKLLEAARAGQDDEVRILMANGADVNASDIFGSTPLHLAARHGHLEIVEVLLKYGADVNAMDFIGDTPLHLAAYRGHLEIVEVLLKYGVDVNADDHGDTPLHLAASMGHLEIVEVLLKNGADVNAQDKFGKTAFDISIDNGNEDLAEILQKLN
notes: ankyrin repeat protein
B6: 5B9 (designed binder)
chain: DLGKKLLEAARAGQDDEVRILMANGADVNATDVFGSTPLHLAARHGHLEIVEVLLKHGADVNATDFIGDTPLHLAAYHGHLEIVEVLLKHGADVNAKNGETPLHLAAYHGHPDIVEVLLKHGADVNAQDKFGKTAFDISIDNGNEDLAEILQKLN
notes: N-Cap-(AR)3-C-Cap
B7: C06_28E5_V1_C01_6G9_V1 (designed binder)
chain: DLGKKLLEAARAGQDDEVRILMANGADVNAADDSGITPLHLAAEDGHLEIVEVLLKAGADVNAQDNLGDTPLHLAAWTGHLEIVEVLLKAGADVNAYDISGITPLHLAAFYGHLEIVEVLLKHGADVNAQDKFGKTAFDISIDNGNEDLAEILQKLNGGGGSGGGGSGGGGSGGGGSDLDKKLLEAARAGQDDEVRILMANGADVNARDSYGSTPLHLAAREGHLEIVEVLLKYGADVNAADFIGDTPLHLAAYRGHLEIVEVLLKYGADVNASDITGETPLHLAAQIGHLEIVEVLLKHGADVNAQDKFGKTAFDISIDNGNEDLAEILQKLN
notes: bispecific IL4/IL13 ankyrin repeat protein with (GGGGS)4 linker; also called bispecific AR protein
B8: 10A6 (designed binder)
chain: DLGKKLLEAARAGQDDEVRILMANGADVNAIDHFDSTPLHLAARHGHLEIVEVLLKNGADVNADDFLGDTPLHLAAYHGHLDIVEVLLKHGADVNAQDKFGKTAFDISIDNGNEDLAEILQKLN
notes: N-Cap-(AR)2-C-Cap, only 2 ARs

Experiments:
[1] = target: cyno IL13 (cynomolgus monkey, UniProt Q0PW92 21-132); test: cell-based or functional assay
[2] = target: T2, human IL13 (human, UniProt P35225 35-146, biotinylated in the SPR assays (sites not given)); test: cell-based or functional assay
[3] = target: T2, human IL13; test: SPR BIAcore, biotin-IL13 on SA chip, global fit
Method: Recombinant human IL13 (Peprotech) was minimally biotinylated on ice using sulfo-NHS-LCLC-Biotin and desalted into the experimental running buffer containing 10 mM HEPES, 150 mM NaCl, pH 7.4, 0.01% Tween-20, and 0.1 mg/mL BSA. Biotinylated IL13 was captured at three different surface densities (from about 150, 50, and 25 RU) onto three different BIAcore SA (streptavidin) sensor chips. Each binding protein sample was tested at 40 nM as the highest concentration in a 3-fold dilution series over the three different density IL13 surfaces. The dissociation phase for the highest concentration of the binding protein sample was monitored for one hour. The response data from each of the different density surfaces was globally fitted in order to extract estimates of the kinetic and affinity constants which are provided in Table 7 below.

[4] = target: T3, human IL13 R130Q (human, UniProt P35225 35-146, biotinylated (sites not given)); test: Luminex competition, 80 pM biotin-IL13 R130Q binding to IL13Ra2-Fc beads
T3 construct: Peprotech; also called IL13R13Q; R111Q
Method: (§1) Binding protein inhibition of IL13 binding to Rα2 was assessed using IL13Rα2-Fc (R&D Systems) conjugated to carboxylated Luminex microspheres according to the manufacturer's protocol. For biotinylation of IL13, recombinant human IL13 R130Q (Peprotech) was biotinylated at a 4:1 ratio using EZ-Link NHS-LC-Biotin (Pierce, #21336) for 2 hours at RT. The protein was dialyzed in PBS overnight to remove excess biotinylation reagent. For neutralization experiments, 5000 IL13 Rα2-Fc conjugated beads in 50 μl were added to each well of a 96-well filter plate (Millipore). 50 μl of biotinylated human IL13 at 1 ng/ml (80 pM) was mixed with an appropriate dilution of binding protein in Luminex Assay Buffer (PBS, 1% BSA, pH 7.4). The plate was incubated for 1 hour at RT in the dark on a plate shaker, set to shake vigorously to avoid bead aggregation. The plate was washed 3 times with 150 μl of wash buffer (PBS, 1% BSA, pH 7.4, 0.05% Tween-20) using a vacuum manifold followed by the addition of 50 μl of Streptavidin PE at 25 μg/ml and incubated at RT for 20 minutes. The plates were washed again and 100 μl of sheath fluid was added and the plate was placed on the shaker for 1 minute. Plates were read using a Luminex® 100 system; data were plotted as a function of binding protein concentration. IC₅₀ values were determined by fitting the data to the equation for sigmoidal dose response using PRIZM software (GraphPAD PRIZM).

[5] = target: T2, human IL13; test: SPR ProteOn, biotin-hIL13 on streptavidin, 1:1 global fit
Method: Complete kinetic data describing binding of various engineered binding protein molecules to human IL13 was measured using a method similar to that described above for the single point affinity analysis. Briefly, streptavidin (Pierce) was immobilized to similar levels (˜1800 RUs) on all six channels of a ProteOn GLC chip via amine coupling (pH 5.0). Biotinylated hIL13 was captured at different surface densities (600˜100 RUs) on different channels. Protein binding was tested starting at 40 nM diluted in a 3-fold concentration series over the different density IL13 surfaces; a buffer sample was injected to monitor the baseline stability. Dissociation phases for all concentrations of each binding protein sample were monitored for one hour at a flow rate of 100 μl/min. Response data for all concentration series from the different density surfaces were globally fit to a 1:1 simple langmuir binding model to extract values of the kinetic (kₒₙ, koff) and affinity (KD) constants provided in Table 16.

[6] = target: T1, human IL4; test: Affinity to IL4; method not re-described
[7] = target: T1, human IL4; test: IL4RA binding inhibition; assay not re-described (Luminex of Example 2)
[8] = target: T3, human IL13 R130Q; test: IL13Ra2 binding inhibition; repeats Table 17
Method: as §1

[9] = target: T1, human IL4; test: IL4R binding inhibition; repeats Table 17
Method: AR protein inhibition of IL4 binding to IL4 RA was assessed using IL4 RA-Fc (R&D Systems), comprising the Gly24-His232 which represents the ECD (SEQ ID NO: 5) fused to a human IgGl-Fc and therefor a disulfide linked homodimer. The protein was conjugated to carboxylated Luminex microspheres according to the manufacturer's protocol. For neutralization experiments, 5000 IL4RA-Fc conjugated beads in 50 μl were added to each well of a 96-well filter plate (Millipore). Biotinylated human IL4 was mixed with an appropriate dilution of AR protein in Luminex Assay Buffer (PBS, 1% BSA, pH 7.4) to give a final concentration of 67 pM IL4. The plate was incubated for 1 hour at RT in the dark on a plate shaker, set to shake vigorously to avoid bead aggregation. The plate was washed twice with 150 μl of wash buffer (PBS, 0.1% BSA, pH 7.4, 0.05% Tween-20) using a vacuum manifold followed by the addition of 50 μl of Streptavidin PE at 25 μg/ml and incubated at RT for 20 minutes. The plates were washed again and 150 μl of sheath fluid was added and the plate was placed on the shaker for 5 minute. Plates were read using a Luminex® 100 system; data were plotted as a function of AR protein concentration. IC₅₀ values were determined by fitting the data to the equation for sigmoidal dose response using PRISM software (GraphPAD PRISM) (Table 6).

[10] = target: T2, human IL13; test: Affinity to IL13; method not re-described
[11] = target: T2, human IL13; test: cell-based or functional assay; remark: listed apart in the source
[12] = target: T1, human IL4; test: cell-based or functional assay
[13] = target: T3, human IL13 R130Q; test: IL13Ra2 binding inhibition; assay not re-described (Luminex of Example 2)
Method: as §1

Chain of cyno IL13 (Q0PW92 entry or part of it): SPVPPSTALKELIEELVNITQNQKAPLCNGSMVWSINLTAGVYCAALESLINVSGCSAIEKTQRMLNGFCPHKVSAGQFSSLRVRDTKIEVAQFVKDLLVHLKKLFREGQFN
T3 sequence (P35225 35-146 limits assumed, stated change not applied): as the sequence (Q0PW92 entry or part of it) above, with S1G, K10R, V42M, N67S, R83H, V100L counted along it
T2 sequence (P35225 other isoform, or with tags, fused parts or gaps limits assumed): as the sequence (Q0PW92 entry or part of it) above, with S1G, K10R, V42M, N67S, R83H, V100L, Q110R counted along it

Binder | Cyno IL13 STAT6 IC50 [1] | STAT6 Phospho IC50 [2] | TARC expression IC50 [2] | Kd [3] | koff [3] | kon [3] | IC50 [4] | Kd [5] | Kd [6] | IC50 [7] | IC50 [8] | IC50 [9] | Kd [10] | A549/TARC IL13 IC50 [11] | HEK Stat6 human IL13 IC50 [11] | A549/TARC IL4 IC50 [12] | HEK stat6 hIL4 IC50 [12] | Ramos Assay IC50 [12] | IC50 [13]
B1 | 48 pM | 2.7 pM | 159 pM | 46.4 pM | 0.000224 s⁻¹ | 4.82e+06 M⁻¹ s⁻¹ | 10.6 pM | – | – | – | – | – | – | – | – | – | – | – | –
B2 | 33.4 pM | 0.9 pM | 109 pM | 21 pM | 1.3e-05 s⁻¹ | 640000 M⁻¹ s⁻¹ | 5.8 pM | – | – | – | – | – | – | – | – | – | – | – | –
B3 | 1210 pM | 19.8 pM | 282 pM | 106 pM | 8e-05 s⁻¹ | 754000 M⁻¹ s⁻¹ | 10.1 pM | – | – | – | – | – | – | – | – | – | – | – | –
B4 | 162 pM | 10.5 pM | 354 pM | 204 pM | 6.25e-05 s⁻¹ | – | 58 pM | – | – | – | – | – | – | – | – | – | – | – | –
B5 | – | 55 pM | – | 110 pM | 9.9e-05 s⁻¹ | 930000 M⁻¹ s⁻¹ | – | 1.64 pM | – | – | – | – | – | – | – | – | – | – | –
B6 | 654 pM | 16.5 pM | 372 pM | 169 pM | 0.000179 s⁻¹ | 1.06e+06 M⁻¹ s⁻¹ | 13.4 pM | – | – | – | – | – | – | – | – | – | – | – | –
B7 | – | – | – | – | – | – | – | – | 21.7 pM | 25 pM | 36 pM | 25 pM | 10.6 pM | 84 pM | 19 pM | 39 pM | 1.1 pM | 5.4 pM | 36 pM
B8 | 1930 pM | 8 pM | 123 pM | 72.9 pM | 0.000201 s⁻¹ | 2.76e+06 M⁻¹ s⁻¹ | 7.5 pM | – | – | – | – | – | – | – | – | – | – | – | –
